The values that follow come from US20240261374A1, “PHARMACEUTICAL COMPOSITION AND KIT COMPRISING AN IMMUNOMODULATORY SUBSTANCE FOR TREATING DISEASES” (ellennbe GmbH, priority 2021, published 2024).

Assay [1] has as its system patient suffering from multiple sclerosis. Briefly: treatment of a patient: SHILD-score, relapses, fatigue. Conditions: for subject's condition in multiple sclerosis: as indicated by the SHILD-score; for SHILD-score: multiple sclerosis. It is filed as in vivo, human.
The test system of assay [2] is ankylosing spondylitis (Bechterew's disease). It is filed as in vivo, human. Particulars: Patient 11; ended more than a year before; lost their effect within half a year.
Where [3] appears, read: as can be seen from the examples.

B1: BDNF: recombinant human BDNF produced in Escherichia coli, R&D Systems catalogue number 248-BDB/CF; SEQ ID NO: 4 (protein, listed as Homo sapiens)
chain: HSDPARRGELSVCDSISEWVTAADKKTAVDMSGGTVTVLEKVPVSKGQLKQYFYETKCNPMGYTKEGCRGIDKRHWNSQCRTTQSYVRALTMDSKKRIGWRFIRIDTSCVCTLTIKRGR
modifications: human BDNF, human brain-derived neurotrophic factor
Consider B1, for which the “fatigue in case of multiple sclerosis” value in assay [1] (setting [3]) is listed as “very effectively relieving”. Further, in assay [1], the “subject's condition in multiple sclerosis” value is listed as “stabilized or even improved” and the SHILD-score result is listed as “decreasing”.

B2: Cimzia®: biologic, certolizumab pegol (antibody, chains of the INN, looked up, V domains shown)
VH: EVQLVESGGGLVQPGGSLRLSCAASGYVFTDYGMNWVRQAPGKGLEWMGWINTYIGEPIYADSVKGRFTFSLDTSKSTAYLQMNSLRAEDTAVYYCARGYRSYAMDYWGQGTLVTVSS
VL: DIQMTQSPSSLSASVGDRVTITCKASQNVGTNVAWYQQKPGKAPKALIYSASFLYSGVPYRFSGSGSGTDFTLTISSLQPEDFATYYCQQYNIYPLTFGQGTKVEIK
modifications: Fab' PEG (pegol)
B2: the “Effect of earlier treatment with biologics (patient history)” value in assay [2] was “had little effect from the outset”.

B3: IL-4: recombinant human IL-4 produced in Escherichia coli, R&D Systems catalogue number 204-IL/CF; SEQ ID NO: 3 (protein, listed as Homo sapiens)
chain: METGLYLETHRSERGLNLELEPRPRLEPHEPHELELEALACYSALAGLYASNPHEVALHISGLYHISLYSCYSASPILETHRLEGLNGLILEILELYSTHRLEASNSERLETHRGLGLNLYSTHRLECYSTHRGLLETHRVALTHRASPILEPHEALAALASERLYSASNTHRTHRGLLYSGLTHRPHECYSARGALAALATHRVALLEARGGLNPHETYRSERHISHISGLLYSASPTHRARGCYSLEGLYALATHRALAGLNGLNPHEHISARGHISLYSGLNLEILEARGPHELELYSARGLEASPARGASNLETRPGLYLEALAGLYLEASNSERCYSPRVALLYSGLALAASNGLNSERTHRLEGLASNPHELEGLARGLELYSTHRILEMETARGGLLYSTYRSERLYSCYSSERSER
modifications: human IL-4, Interleukin 4
In the case of B3, in assay [1] (setting [3]), the “fatigue in case of multiple sclerosis” value was “reduction” and the “relapses in case of multiple sclerosis” value was “avoiding”. In assay [1], the “subject's condition in multiple sclerosis” value is on record as “stabilization or even improvement” and the SHILD-score result is on record as “decreasing”.
